In patent US20210130454A1 (BLUEFIN BIOMEDICINE, published 2021):

How the values were obtained:
[1] = biological target: T1, human SEZ6L2 on cells (293-SEZ6L2, HEK 293 cells transfected with human SEZ6L2, and SEZ6L2-expressing tumor … (human, UniProt Q6UXD5 28-910)); assay: flow cytometry on live 293-SEZ6L2 cells, primary antibody 1 ug/ml, Alexa Fluor 488 anti-human IgG secondary [panel B]
T1 construct: Tumor cell lines express the endogenous protein; also called hSEZ6L2

[2] = biological target: T2, human SEZ6L on cells (293-SEZ6L) (human, UniProt Q9BYH1 29-1024); assay: flow cytometry on live 293-SEZ6L cells, Alexa Fluor 488 anti-human IgG secondary [panel B]
T2 construct: whole, on cells; also called Seizure 6-like Protein
T2 sequence (looked up): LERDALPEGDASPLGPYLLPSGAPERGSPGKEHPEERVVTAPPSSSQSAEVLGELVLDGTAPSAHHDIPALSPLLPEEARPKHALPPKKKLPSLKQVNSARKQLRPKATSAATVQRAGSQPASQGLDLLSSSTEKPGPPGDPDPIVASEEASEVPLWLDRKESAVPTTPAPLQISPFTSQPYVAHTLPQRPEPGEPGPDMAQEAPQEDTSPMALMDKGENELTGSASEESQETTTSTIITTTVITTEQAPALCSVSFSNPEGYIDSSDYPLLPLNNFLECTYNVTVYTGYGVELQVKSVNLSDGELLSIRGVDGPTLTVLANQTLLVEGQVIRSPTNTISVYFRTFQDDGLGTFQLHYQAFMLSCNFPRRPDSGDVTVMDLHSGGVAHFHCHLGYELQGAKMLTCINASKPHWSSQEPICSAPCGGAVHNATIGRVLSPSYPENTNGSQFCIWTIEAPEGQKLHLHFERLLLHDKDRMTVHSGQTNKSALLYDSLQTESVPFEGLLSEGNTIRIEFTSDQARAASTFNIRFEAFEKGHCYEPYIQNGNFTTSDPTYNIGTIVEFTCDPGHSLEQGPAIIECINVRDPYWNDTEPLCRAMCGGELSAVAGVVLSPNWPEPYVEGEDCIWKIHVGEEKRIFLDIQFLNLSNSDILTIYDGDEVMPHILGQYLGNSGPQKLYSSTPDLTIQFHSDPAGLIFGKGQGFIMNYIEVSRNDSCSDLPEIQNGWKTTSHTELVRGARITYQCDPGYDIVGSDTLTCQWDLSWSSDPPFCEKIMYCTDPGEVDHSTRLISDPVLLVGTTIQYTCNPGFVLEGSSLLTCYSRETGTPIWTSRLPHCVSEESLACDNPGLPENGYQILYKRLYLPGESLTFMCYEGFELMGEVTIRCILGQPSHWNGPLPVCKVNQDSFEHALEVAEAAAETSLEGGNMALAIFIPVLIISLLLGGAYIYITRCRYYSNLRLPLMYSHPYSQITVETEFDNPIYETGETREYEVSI

[3] = biological target: T3, human SEZ6 on cells (293-SEZ6) (human, UniProt Q53EL9 20-994); assay: flow cytometry on live 293-SEZ6 cells, Alexa Fluor 488 anti-human IgG secondary [panel B]
T3 construct: whole, on cells; also called Seizure Protein 6 Homolog
T3 sequence (looked up): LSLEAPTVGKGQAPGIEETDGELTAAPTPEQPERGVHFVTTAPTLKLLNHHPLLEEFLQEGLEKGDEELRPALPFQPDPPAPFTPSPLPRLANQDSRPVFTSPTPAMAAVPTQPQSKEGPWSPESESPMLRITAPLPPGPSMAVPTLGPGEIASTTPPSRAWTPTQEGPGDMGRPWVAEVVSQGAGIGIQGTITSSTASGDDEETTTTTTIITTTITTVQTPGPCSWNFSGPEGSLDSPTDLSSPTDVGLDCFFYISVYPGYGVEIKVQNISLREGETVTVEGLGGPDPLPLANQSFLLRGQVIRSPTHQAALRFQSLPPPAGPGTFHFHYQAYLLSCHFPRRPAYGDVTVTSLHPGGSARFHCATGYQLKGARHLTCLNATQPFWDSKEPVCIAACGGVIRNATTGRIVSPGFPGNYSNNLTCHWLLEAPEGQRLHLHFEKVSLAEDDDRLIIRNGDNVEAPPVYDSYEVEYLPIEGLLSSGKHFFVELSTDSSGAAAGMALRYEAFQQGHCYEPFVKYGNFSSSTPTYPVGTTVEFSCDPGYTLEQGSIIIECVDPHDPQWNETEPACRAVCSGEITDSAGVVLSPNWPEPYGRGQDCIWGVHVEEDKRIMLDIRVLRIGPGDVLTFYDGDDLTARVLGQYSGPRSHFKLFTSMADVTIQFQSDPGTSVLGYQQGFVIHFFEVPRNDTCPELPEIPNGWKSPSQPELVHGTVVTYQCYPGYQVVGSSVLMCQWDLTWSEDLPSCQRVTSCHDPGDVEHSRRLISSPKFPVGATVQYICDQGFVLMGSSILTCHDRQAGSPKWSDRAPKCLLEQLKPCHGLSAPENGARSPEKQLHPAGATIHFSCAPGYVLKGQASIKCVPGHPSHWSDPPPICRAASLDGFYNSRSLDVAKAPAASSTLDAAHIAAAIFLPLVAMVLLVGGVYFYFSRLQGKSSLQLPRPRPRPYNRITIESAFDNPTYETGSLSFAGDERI

[4] = biological target: T2, human SEZ6L on cells (293-SEZ6L); assay: flow cytometry on live 293-SEZ6L cells, Alexa Fluor 488 anti-human IgG secondary [continued), panel E]
[5] = biological target: T3, human SEZ6 on cells (293-SEZ6); assay: flow cytometry on live 293-SEZ6 cells, Alexa Fluor 488 anti-human IgG secondary [continued), panel E]
[6] = biological target: T4, recombinant cynomolgus monkey SEZ6L2 (cynomolgus monkey, UniProt G7Q0V6 28-844); assay: BLI (ForteBio Octet Red96), antibody on Protein A biosensors, recombinant target protein in solution
T4 construct: The construct is not described; also called cynomolgus monkey SEZL2

[7] = biological target: T5, recombinant human SEZ6L2 (extracellular portion of human SEZ6L2 fused to six C-terminal histidine-tag repeats) (human, UniProt Q6UXD5 28-844); assay: as above
T5 construct: also called SEZ6L2-his; recombinant SEZ6L2
T5 sequence (Q6UXD5 other isoform, or with tags, fused parts or gaps): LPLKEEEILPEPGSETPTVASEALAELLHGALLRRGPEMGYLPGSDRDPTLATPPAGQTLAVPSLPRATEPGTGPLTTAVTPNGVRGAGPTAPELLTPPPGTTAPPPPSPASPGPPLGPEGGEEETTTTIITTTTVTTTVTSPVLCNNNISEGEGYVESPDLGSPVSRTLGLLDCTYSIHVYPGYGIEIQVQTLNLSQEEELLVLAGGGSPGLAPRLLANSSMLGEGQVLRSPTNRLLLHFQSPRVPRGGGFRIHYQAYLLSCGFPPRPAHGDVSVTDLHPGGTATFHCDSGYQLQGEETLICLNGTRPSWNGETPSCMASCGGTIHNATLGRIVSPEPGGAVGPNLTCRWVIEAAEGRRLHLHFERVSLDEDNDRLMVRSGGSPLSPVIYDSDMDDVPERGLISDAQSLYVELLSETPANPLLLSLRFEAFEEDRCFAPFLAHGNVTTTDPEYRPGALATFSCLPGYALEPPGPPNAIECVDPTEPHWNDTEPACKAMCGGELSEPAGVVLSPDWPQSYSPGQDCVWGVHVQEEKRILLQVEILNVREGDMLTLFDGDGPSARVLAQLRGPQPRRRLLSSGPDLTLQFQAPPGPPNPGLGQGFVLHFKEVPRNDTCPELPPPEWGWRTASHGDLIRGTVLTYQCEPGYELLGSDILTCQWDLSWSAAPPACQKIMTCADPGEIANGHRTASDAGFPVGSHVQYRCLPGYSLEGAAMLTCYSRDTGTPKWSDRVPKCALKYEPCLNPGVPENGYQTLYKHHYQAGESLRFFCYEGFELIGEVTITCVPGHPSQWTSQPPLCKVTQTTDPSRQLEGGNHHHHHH

[8] = biological target: T2, human SEZ6L on cells (293-SEZ6L); assay: flow cytometry on live 293-SEZ6L cells, Alexa Fluor 488 anti-human IgG secondary [continued), panel J]
[9] = biological target: T3, human SEZ6 on cells (293-SEZ6); assay: flow cytometry on live 293-SEZ6 cells, Alexa Fluor 488 anti-human IgG secondary [continued), panel J]
[10] = biological target: T3, human SEZ6 on cells (293-SEZ6); assay: flow cytometry on live 293-SEZ6 cells, Alexa Fluor 488 anti-human IgG secondary [continued), panel K]
[11] = biological target: T2, human SEZ6L on cells (293-SEZ6L); assay: flow cytometry on live 293-SEZ6L cells, Alexa Fluor 488 anti-human IgG secondary [continued), panel K]
[12] = biological target: T3, human SEZ6 on cells (293-SEZ6); assay: flow cytometry on live 293-SEZ6 cells, Alexa Fluor 488 anti-human IgG secondary [continued), panel L]
[13] = biological target: T2, human SEZ6L on cells (293-SEZ6L); assay: flow cytometry on live 293-SEZ6L cells, Alexa Fluor 488 anti-human IgG secondary [continued), panel L]
[14] = biological target: T2, human SEZ6L on cells (293-SEZ6L); assay: flow cytometry on live 293-SEZ6L cells, Alexa Fluor 488 anti-human IgG secondary [panel C]
[15] = biological target: T3, human SEZ6 on cells (293-SEZ6); assay: flow cytometry on live 293-SEZ6 cells, Alexa Fluor 488 anti-human IgG secondary [panel C]
[16] = biological target: T2, human SEZ6L on cells (293-SEZ6L); assay: flow cytometry on live 293-SEZ6L cells, Alexa Fluor 488 anti-human IgG secondary [panel D]
[17] = biological target: T3, human SEZ6 on cells (293-SEZ6); assay: flow cytometry on live 293-SEZ6 cells, Alexa Fluor 488 anti-human IgG secondary [panel D]

T1 sequence (Q6UXD5 28-910): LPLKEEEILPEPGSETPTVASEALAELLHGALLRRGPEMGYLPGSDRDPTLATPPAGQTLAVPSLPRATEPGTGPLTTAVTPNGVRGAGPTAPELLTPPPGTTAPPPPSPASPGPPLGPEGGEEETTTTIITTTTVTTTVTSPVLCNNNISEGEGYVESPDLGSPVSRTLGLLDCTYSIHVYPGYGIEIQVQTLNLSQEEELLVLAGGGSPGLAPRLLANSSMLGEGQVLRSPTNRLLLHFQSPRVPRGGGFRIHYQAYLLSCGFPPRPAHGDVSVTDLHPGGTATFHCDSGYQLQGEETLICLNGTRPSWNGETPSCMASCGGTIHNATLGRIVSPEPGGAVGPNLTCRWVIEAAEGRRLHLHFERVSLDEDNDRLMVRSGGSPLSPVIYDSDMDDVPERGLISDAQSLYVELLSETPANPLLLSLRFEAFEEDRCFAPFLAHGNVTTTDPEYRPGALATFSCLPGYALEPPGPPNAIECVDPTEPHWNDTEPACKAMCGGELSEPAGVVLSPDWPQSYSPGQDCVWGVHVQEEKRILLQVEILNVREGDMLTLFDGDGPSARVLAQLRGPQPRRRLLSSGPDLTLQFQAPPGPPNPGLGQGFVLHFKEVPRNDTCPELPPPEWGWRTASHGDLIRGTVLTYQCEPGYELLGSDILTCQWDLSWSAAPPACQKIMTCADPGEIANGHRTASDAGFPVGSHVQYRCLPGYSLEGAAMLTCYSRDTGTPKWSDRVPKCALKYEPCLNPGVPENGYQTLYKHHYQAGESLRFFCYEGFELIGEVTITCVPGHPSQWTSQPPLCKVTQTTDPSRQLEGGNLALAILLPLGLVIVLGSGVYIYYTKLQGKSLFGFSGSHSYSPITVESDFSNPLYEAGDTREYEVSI

B1: human anti-SEZ6L2 antibody 1C6 (antibody, V domains shown)
VH: QVQLQESGPGLVKPSETLSLTCTVSGGSISSYYWSWIRQPPGKGLEWIGYIYNSGSTNYNPSLKSRVTISVDTSKNQFSLKLSSVTAADTAVYYCARRGDQGYWYFDLWGRGTLVTVSS
VL: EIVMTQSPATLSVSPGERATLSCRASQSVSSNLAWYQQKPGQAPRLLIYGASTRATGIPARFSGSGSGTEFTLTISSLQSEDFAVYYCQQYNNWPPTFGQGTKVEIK
notes: also called 106
**Q.** Does B1 bind [1]?
**A.** Result: binds

**Q.** Does B1 bind [2]?
**A.** Result: no binding (tested: 1 ug/ml)

**Q.** Does B1 bind [3]?
**A.** Result: no binding (tested: 1 ug/ml)

B2: human anti-SEZ6L2 antibody 3A3 (antibody, V domains shown)
VH: QVQLQESGPGLVKPSGTLSLTCAVSGGSISSSNWWSWVRQPPGKGLEWIGEIYHSGSTNYNPSLKSRVTISVDKSKNQFSLKLSSVTAADTAVYYCAAYSGSYFEYWGQGTLVTVSS
VL: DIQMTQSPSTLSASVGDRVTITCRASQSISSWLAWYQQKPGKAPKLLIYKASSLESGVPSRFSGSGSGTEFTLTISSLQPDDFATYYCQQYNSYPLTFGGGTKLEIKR
notes: Fully human antibody from H2L2 mice
**Q.** Does B2 bind [4]?
**A.** Result: no binding (tested: 1 ug/ml)

**Q.** Does B2 bind [5]?
**A.** Result: no binding (tested: 1 ug/ml)

**Q.** And the Kd [6]?
**A.** The Kd was 26 nM.

**Q.** And the Kd [7]?
**A.** The Kd was 24 nM.

B3: humanized anti-SEZ6L2 antibody 3E2 (antibody, human IgG1, V domains shown)
VH: EVQLVESGGGLVQPGGSLKLSCAASGFSFNTITMNWVRQASGKGLEWVGRIRSKSNNYATYYADAVKDRFTISRDDSKNTAYLQMNSLKTEDTAVYYCVRGIFSGYVYAMDYWGQGTLVTVSS
VL: DVVMTQSPLSLPVTVGQPASISCRSSQSIVHSNGNTYLEWFQQRPGQSPRVLIYKVSNRFSGVPDRFSGSGSGTDFTLKISRVEAEDVGVYYCFQGSHVPYTFGGGTKLEIKR
notes: also called 3E2:7D4
**Q.** Does B3 bind [8]?
**A.** Result: no binding (tested: 1 ug/ml)

**Q.** Does B3 bind [9]?
**A.** Result: no binding (tested: 1 ug/ml)

**Q.** And the Kd [6]?
**A.** The Kd was 2 nM.

**Q.** What about the Kd [7] of the same binder?
**A.** The Kd was 2 nM.

B4: humanized anti-SEZ6L2 antibody 16H8 (antibody, human IgG1, V domains shown)
VH: QIQLVQPGAEVKKPGASVKVSCKASGYTFTSYWMYWVRQAPGQGLEWMGAIYPRDSDTSYNQKFKGRVTMTRVTSTSTVYMELSSLRSEDTAVYYCTRGDYYYGSSYYAMDYWGQGTTVTVSS
VL: DIVMTQSPLSLPVTPGEPASISCSSSKSLLHSNGITYLYWYLQKPGQSPQLLIYRMSNLASGVPDRFSGSGSGTDFTLKISRVEAEDVGVYYCAQMLERPYTFGQGTKVEIKR
notes: Humanized from mu16H8; also called 16H8:A3F5
**Q.** Which results are given for B4?
**A.** binding result [10]: no binding (tested: 1 ug/ml); binding result [11]: no binding (tested: 1 ug/ml); Kd [7]: 2 nM

B5: humanized anti-SEZ6L2 antibody 20C4 (antibody, human IgG1, V domains shown)
VH: EVQLVESGGGLVQPGGSLRLSCAASGFTFTDYYMSWVRQAPGKGLEWVALIRNKANGYTTEYSASVKGRFTISRDNSKNSLYLQMNSLRAEDTAVYYCARNGLYGLFAYWGQGTLVTVSS
VL: DIVMTQTPLSIPVTPGEPASISCRSSTSLLESSGKHRLYWYLQKPGQSPQLLIYYMSNLASGVPDRFSGSGSGTDFTLKISRVEAEDFGVYYCMQSLEYPLTFGAGTKVEIKR
notes: also called 20C4:red
**Q.** Does B5 bind [12]?
**A.** Result: no binding (tested: 1 ug/ml)

**Q.** Does B5 bind [13]?
**A.** Result: no binding (tested: 1 ug/ml)

**Q.** What about the Kd [6] of the same binder?
**A.** Its Kd is 3 nM.

**Q.** And the Kd [7]?
**A.** Its Kd is 3 nM.

B6: human anti-SEZ6L2 antibody 3A1 (antibody, V domains shown)
VH: QVQLVQSGAEVKKPGASVKVSCKASGFTFTGYYILWMRQAPGQGLEWMGWINPNNGGTHYAQKFQGRVTMTRDTSISTAYMELSRLRSDDTAVYYCARDSGHDWYFDLWGRGTLVTVSS
VL: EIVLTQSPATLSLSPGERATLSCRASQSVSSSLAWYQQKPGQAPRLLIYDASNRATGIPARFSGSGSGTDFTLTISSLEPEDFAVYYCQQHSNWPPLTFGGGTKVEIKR
notes: Fully human antibody from H2L2 mice; it was captured on Protein A and detected with anti-human IgG
**Q.** Does B6 bind [14]?
**A.** Result: no binding (tested: 1 ug/ml)

**Q.** What about the Kd [6] of the same binder?
**A.** The Kd was 0.3 nM.

**Q.** And the Kd [7]?
**A.** Its Kd is 0.3 nM.

**Q.** Does B6 bind [15]?
**A.** Result: no binding (tested: 1 ug/ml)

B7: human anti-SEZ6L2 antibody 3A2 (antibody, V domains shown)
VH: QVQLQESGPGLVKPSGTLSLTCAVSGGSISSYHWWSWVRQPPGKGLEWIGEIYHSGSTNYNPSLKSRVTISVDKSKNQFSLKLSSVTAADTAVYYCARWGRIAVADYWGQGTLVTVSS
VL: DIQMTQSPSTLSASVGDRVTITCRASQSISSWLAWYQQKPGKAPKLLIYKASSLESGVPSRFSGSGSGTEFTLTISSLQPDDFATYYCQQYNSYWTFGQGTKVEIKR
notes: as for B2
**Q.** Which results are given for B7?
**A.** binding result [16]: no binding (tested: 1 ug/ml); Kd [6]: 3 nM; Kd [7]: 3 nM; binding result [17]: no binding (tested: 1 ug/ml)
